Values joined by “and” are separate entries in the source; they are usually repeats but may differ in a detail not shown here. Identical values can stand only once. “Also recorded” adds a separate entry of the source. Where a SMILES comes first, the peptide text is derived from it.
T1: CLA-1 (CD36 and LIMPII Analogous-1), human scavenger receptor class B type I (human, UniProt Q8WTV0 1-552)
T1 construct: whole, on cells; Target is CLA-1 on stably transfected HeLa cells, compared with mock-transfected HeLa cells, which carry a low endogenous level of CLA-1; also called SR-BI/CLA-1; human SR-BI
T1 sequence (looked up): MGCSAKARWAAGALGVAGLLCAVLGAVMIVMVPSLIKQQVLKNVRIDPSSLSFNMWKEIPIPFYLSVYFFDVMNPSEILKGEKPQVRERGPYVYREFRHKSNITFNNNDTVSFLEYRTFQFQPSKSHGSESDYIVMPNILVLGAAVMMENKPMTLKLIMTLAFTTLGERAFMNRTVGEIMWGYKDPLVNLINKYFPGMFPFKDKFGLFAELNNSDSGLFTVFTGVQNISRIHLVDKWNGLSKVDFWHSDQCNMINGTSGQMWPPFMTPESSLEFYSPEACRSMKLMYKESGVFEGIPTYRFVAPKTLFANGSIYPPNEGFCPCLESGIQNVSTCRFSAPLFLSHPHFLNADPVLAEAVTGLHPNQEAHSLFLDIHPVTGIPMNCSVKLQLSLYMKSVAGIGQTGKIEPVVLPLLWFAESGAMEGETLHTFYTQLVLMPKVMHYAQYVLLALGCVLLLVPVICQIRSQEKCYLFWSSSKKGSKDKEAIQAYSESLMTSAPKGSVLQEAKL

T2: CLA-1 (Homo sapiens, UniProt Q8WTV0)
T2 construct: using the expression plasmid pTRE2 (Clontech, Pal Alto, Calif.), encoding a CLA-1 protein (pTRE2-CLA-1); expressed in transfected cells; host or cells: HeLa (Tet-off) cells (Clontech), stably co-transfected with pTRE2-CLA-1 and pTK-Hyg and selected with hygromycin
T2 sequence (Q8WTV0 1-509 isoform Q8WTV0-2): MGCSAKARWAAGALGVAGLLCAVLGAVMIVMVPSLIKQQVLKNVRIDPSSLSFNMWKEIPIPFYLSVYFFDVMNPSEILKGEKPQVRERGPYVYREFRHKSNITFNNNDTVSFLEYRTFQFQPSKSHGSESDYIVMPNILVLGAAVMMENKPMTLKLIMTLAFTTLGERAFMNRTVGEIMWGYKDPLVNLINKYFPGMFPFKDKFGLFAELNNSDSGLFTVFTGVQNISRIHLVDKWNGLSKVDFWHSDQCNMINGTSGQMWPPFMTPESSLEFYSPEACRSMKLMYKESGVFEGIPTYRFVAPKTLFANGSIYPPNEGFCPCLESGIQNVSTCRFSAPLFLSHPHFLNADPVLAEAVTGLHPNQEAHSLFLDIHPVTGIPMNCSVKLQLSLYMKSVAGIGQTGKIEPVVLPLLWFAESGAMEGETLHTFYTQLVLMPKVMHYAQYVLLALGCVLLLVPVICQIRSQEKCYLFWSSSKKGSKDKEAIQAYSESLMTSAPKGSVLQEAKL


Columns and labels:
[1] = tested on: THP-1 cells; settings: 20 μg/ml
Protocol: Assays for cytokines and lactate dehydrogenase (LD). Interleukins 6 and 8 (IL-6 and IL-8) and tumor-necrosis factor-α (TNF-α) are measured in culture supernatants of THP-1 cells using commercial ELISA kits (Biosource International, USA). LD activity was measured in the supernatants by a Hitachi 917 automated chemistry analyzer (Roche).

[2] = biological target: T1, CLA-1 (CD36 and LIMPII Analogous-1), …; experiment: flow cytometry of Alexa-488 SAA uptake
[3] = biological target: T2, CLA-1; experiment: Competition for Alexa 488-SAA uptake in CLA-1 overexpressing and mock transfected HeLa cells (FACS); assay type: binding; settings: mock transfected and CLA-1 overexpressing HeLa cells
Protocol: Competition experiments. Cells are cultured for 24 hr in serum free DMEM before experiments. […] For KKB-1 anti-CLA-1 blocking experiments, cells are pre-incubated with KKB-1 rabbit anti-serum (non-immune rabbit serum as a negative control) at a dilution of 1:10 followed by ligand addition to a final concentration of 5 μg/ml and a 1-hour incubation. Cell fluorescence was analyzed by FACS analyses.

[4] = biological target: T2, CLA-1; experiment: FACS analysis of Alexa 488-SAA and Alexa 488-HDL uptake in HeLa cells; assay type: cell-based; settings: CLA-1 overexpressing HeLa cells
Protocol: Ligand-uptake experiments. Binding experiments are performed at 37° C. using concentrations between 1.25 and 30 μg/ml. All incubations are performed in DMEM containing 2 mg/ml BSA. After a 2-hr-incubation […], the cells are rinsed with ice-cold PBS and released by a 30-min incubation in EDTA containing Cell stripper (CellGro, USA). Cells are resuspended and added to an equal volume of 4% paraformaldehyde in PBS. Cell fluorescence is analyzed by FACS analyses.

fold increase of uptake over mock transfected HeLa cells [2] | concentration at which SAA uptake plateaus [4] | Molecule | toxic effect (LDH release, β-actin expression) [1] | competition with Alexa 488-SAA for CLA-1 [3]
 |  | CC(C)C[C@H](NC(=O)[C@H](Cc1c[nH]c2ccccc12)NC(=O)[C@H](CC(=O)O)NC(=O)[C@@H]1CCCN1C(=O)[C@H](Cc1ccccc1)NC(=O)[C@H](C)NC(=O)[C@H](CCC(=O)O)NC(=O)[C@H](CCCCN)NC(=O)[C@H](CC(C)C)NC(=O)[C@H](CCCCN)NC(=O)[C@H](CCC(=O)O)NC(=O)[C@H](C)NC(=O)[C@@H](NC(=O)[C@H](CCCCN)NC(=O)[C@H](CC(=O)O)NC(=O)[C@H](Cc1ccc(O)cc1)NC(=O)[C@H](Cc1ccccc1)NC(=O)[C@H](C)NC(=O)[C@H](CCCCN)NC(=O)[C@H](CC(C)C)NC(=O)[C@H](Cc1c[nH]c2ccccc12)NC(=O)[C@@H](N)CC(=O)O)C(C)C)C(=O)N[C@@H](CCCCN)C(=O)N[C@@H](C)C(=O)N[C@@H](Cc1ccccc1)C(=O)N[C@@H](Cc1ccc(O)cc1)C(=O)N[C@@H](CC(=O)O)C(=O)N[C@@H](CCCCN)C(=O)N[C@H](C(=O)N[C@@H](C)C(=O)N[C@@H](CCC(=O)O)C(=O)N[C@@H](CCCCN)C(=O)N[C@@H](CC(C)C)C(=O)N[C@@H](CCCCN)C(=O)N[C@@H](CCC(=O)O)C(=O)N[C@@H](C)C(=O)N[C@@H](Cc1ccccc1)C(=O)O)C(C)C [Peptide L-37PA] (H-DWLKAFYDKVAEKLKEAFPDWLKAFYDKVAEKLKEAF-OH; N-terminus and C-terminus assumed) | no apparent toxic effect | 
> 5 fold | 2.5 µg/mL and 2.5 to 5 µg/mL | Serum Amyloid A1 (StressGene) (ligand, UniProt P0DJI8 19-122, looked up, also called SAA; lipid-free SAA) RSFFSFLGEAFDGARDMWRAYSDMREANYIGSDKYFHARGNYDAAKRGPGGAWAAEVITDARENIQRFFGHGAEDSLADQAANEWGRSGKDPNHFRPAGLPEKY |  | efficient competitor; also recorded: competed for CLA-1 binding with Alexa 488-SAA
